Source: publication PMC8085772 (The Journal of Cell Biology, 2021)

B1: FLAG-His-tagged full-length CRT_(Del52), purified (natural protein, human)
chain: EPAVYFKEQFLDGDGWTSRWIESKHKSDFGKFVLSSGKFYGDEEKDKGLQTSQDARFYALSASFEPFSNKGQTLVVQFTVKHEQNIDCGGGYVKLFPNSLDQTDMHGDSEYNIMFGPDICGPGTKKVHVIFNYKGKNVLINKDIRCKDDEFTHLYTLIVRPDNTYEVKIDNSQVESGSLEDDWDFLPPKKIKDPDASKPEDWDERAKIDDPTDSKPEDWDKPEHIPDPDAKKPEDWDEEMDGEWEPPVIQNPEYKGEWKPRQIDNPDYKGTWIHPEIDNPEYSPDPSIYAYDNFGVLGLDLWQVKSGTIFDNFLITNDEAYAEEFGNETWGVTKAAEKQMKDKQDEEQRTRRMMRTKMRMRRMRRTRRKMRRKMSPARPRTSCREACLQGWTEA
B2: his-GB1-tagged C-domain of CRT_(Del52) (domain or fragment, human)
chain: MKDKQDEEQRTRRMMRTKMRMRRMRRTRRKMRRKMSPARPRTSCREACLQGWTEA

How the values were obtained:
[1] = biological target: the molecule itself; experiment: non-reducing SDS-PAGE with Coomassie staining + mass spectrometry of the bands
[2] = biological target: the molecule itself; experiment: non-reducing SDS-PAGE with immunoblot

| Protein | stoichiometry N [1] | stoichiometry N [2] |
| --- | --- | --- |
| B1 | 2 |  |
| B2 |  | 2 |
